Results reported in patent publication US20080226630A1 (SYMPHOGEN A S, published 2008).

B1: Fab fragment of antibody 735 (Fab, V domains shown)
VH: QVQLQESGPGLVKPSETLSLTCTVSNGAIGDYDWSWIRQSPGKGLEWIGNINYRGNTNYNPSLKSRVTMSLRTSTMQFSLKLSSATAADTAVYYCARDVGYGGGQYFAMDVWSPGTTVTVSS
VL: EIVLTQSPATLSLSPGERATLSCRASQSVNSHLAWYQQKPGQAPRLLIYNTFNRVTGIPARFSGSGSGTDFTLTISSLATEDFGVYYCQQRSNWPPALTFGGGTKVEIKR
notes: also called Fab clone 735
B2: Fab fragment of antibody 818 (Fab, V domains shown)
VH: QVTLRESGPAVVKPTETLTLTCAFSGFSLNAGRVGVSWIRQPPGQAPEWLARIDWDDDKAFRTSLKTRLSISKDSSKNQVVLTLSNMDPADTATYYCARTQVFASGGYYLYYLDHWGQGTLVTVSS
VL: DIQMTQSPSSLSASVGDRVTITCRASQTIASYVNWYQQKPGRAPSLLIYAASNLQSGVPPRFSGSGSGTDFTLTISGLQPDDFATYYCQQSYSYRALTFGGGTKVEIKR
B3: Fab fragment of antibody 817 (Fab, V domains shown)
VH: QVQLVESGGGVVQPGRSLRLSCAASGFGFNTHGMHWVRQAPGKGLEWLSIISLDGIKTHYADSVKGRFTISRDNSKNTVFLQLSGLRPEDTAVYYCAKDHIGGTNAYFEWTVPFDGWGQGTLVTVSS
VL: EIVMTQSPATLSASPGERATLSCWASQTIGGNLAWYQQKPGQAPRLLIYGASTRATGVPARFSGSGSGTEFTLAISSLQSEDFAVYYCQQYKNWYTFGQGTKLELKR
notes: also called Fab clone 817
B4: Fab fragment of antibody 819 (Fab, V domains shown)
VH: QVQLQESGPGLVKPSQTLSLTCTVSSGAISGADYYWSWIRQPPGKGLEWVGFIYDSGSTYYNPSLRSRVTISIDTSKKQFSLKLTSVTAADTAVYYCARDLGYGGNSYSHSYYYGLDVWGRGTTVTVSS
VL: EIVLTQSPATLSLSPGERATLSCRASQSVSSSLAWYQQTPGQAPRLLIYDASYRVTGIPARFSGSGSGIDFTLTISSLEPEDFAVYYCQQRSNWPPGLTFGGGTKVEIKR
B5: Fab fragment of antibody 825 (Fab, V domains shown)
VH: QVQLVQSGAEVKKPGASVKVSCKVSGYTFTSNGLSWVRQAPGQGFEWLGWISASSGNKKYAPKFQGRVTLTTDISTSTAYMELRSLRSDDTAVYYCAKDGGTYVPYSDAFDFWGQGTMVTVSS
VL: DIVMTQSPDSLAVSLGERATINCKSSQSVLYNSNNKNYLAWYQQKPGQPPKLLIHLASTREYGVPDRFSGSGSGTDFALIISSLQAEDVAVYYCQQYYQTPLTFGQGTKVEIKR
B6: Fab fragment of antibody 858 (Fab, V domains shown)
VH: QVQLVQSGAEVKKPGSSVKVSCKASGGSFDGYTISWLRQAPGQGLEWMGRVVPTLGFPNYAQKFQGRVTVTADRSTNTAYLELSRLTSEDTAVYYCARMNLGSHSGRPGFDMWGQGTLVTVSS
VL: DIQMTQSPSSVSASVGDRVTITCQASQDISNYLNWYQQKPGKAPKLLIFDATKLETGVPTRFIGSGSGTDFTVTITSLQPEDVATYYCQHFANLPYTFGQGTKLEIKR
notes: also called Fab clone 858
B7: Fab fragment of antibody 831 (Fab, V domains shown)
VH: QVQLVQSGAEVKKPGASVKVSCKASANIFTYAMHWVRQAPGQRLEWMGWINVGNGQTKYSQRFQGRVTITRDTSATTAYMELSTLRSEDTAVYYCARRASQYGEVYGNYFDYWGQGTLVTVSS
VL: DIQMTQSPSTLSASVGDRLTITCRASQNIYNWLAWYQQKPGKAPKLLIYDASTLESGVPSRFSGSGSGTEFTLTISSLQPDDFATYYCQQYNSLSPTFGQGTKVEIKR
notes: also called Fab clone 831
B8: Fab fragment of antibody 810 (Fab, V domains shown)
VH: QVQLVQSGAEVKKSGSSVKVSCRASGGTFGNYAINWVRQAPGQGLEWVGRIIPVFDTTNYAQKFQGRVTITADRSTNTAIMQLSSLRPQDTAMYYCLRGSTRGWDTDGFDIWGQGTMVTVSS
VL: NIQMTQSPSAMSASVGDRVTITCRASQGISNYLVWFQQKPGKVPKRLIYAASSLQSGVPSRFSGSGSGTEFTLTISSLQPEDFATYYCLQHNISPYTFGQGTKLETKR
notes: also called Fab clone 810
B9: Fab fragment of antibody 796 (Fab)
VH: QVQLVESGGGVVQPGRSLRLSCAASGFSFSHFGMHWVRQVPGKGLEWVAIISYDGNNVHYADSVKGRFTISRDNSKNTLFLQMNSLRDDDTGVYYCAKDDVATDLAAYYYFDVWGRGTLVTVSS
light: DIVMTQTPLSLSVTPGQPASISCRSSQSLLRSDGKTFLYWYLQKPGQSPQPLMYEVSSRFSGVPDRFSGSGSGADFTLNISRVETEDVGIYYCMQGLKIRRTFGPGTKVEIKRTVAAPSVFIFPPSDEQLKSGTASVVCLLNNFYPREAKVQWKVDNALQSGNSQESVTEQDSKDSTYSLSSTLTLSKADYEKHKVYACEVTHQGLSSPVTKSFNRGEC
notes: also called Fab clone 796
B10: Fab fragment of antibody 811 (Fab)
VH: QVQLVQSGAVVETPGASVKVSCKASGYIFGNYYIHWVRQAPGQGLEWMAVINPNGGSTTSAQKFQDRITVTRDTSTTTVYLEVDNLRSEDTATYYCARQRSVTGGFDAWLLIPDASNTWGQGTMVTVSS
light: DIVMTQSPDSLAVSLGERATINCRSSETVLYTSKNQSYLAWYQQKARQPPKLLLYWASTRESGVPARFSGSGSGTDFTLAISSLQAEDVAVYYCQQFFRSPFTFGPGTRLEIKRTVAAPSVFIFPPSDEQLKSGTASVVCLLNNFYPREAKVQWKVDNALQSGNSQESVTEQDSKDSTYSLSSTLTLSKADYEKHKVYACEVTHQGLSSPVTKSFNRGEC
notes: also called Fab clone 811
B11: Fab fragment of antibody 816 (Fab)
VH: EVQLLESGGGLVQPGGSLRLSCVASGFTFSTYAMTWVRQAPGKGLEWVSVIRASGDSEIYADSVRGRFTISRDNSKNTVFLQMDSLRVEDTAVYFCANIGQRRYCSGDHCYGHFDYWGQGTLVTVSS
light: DIVMTQSPLSLPVTPGEPASISCRSSQSLLHSDGRYYVDWYLQKPGQSPHLLIYLASNRASGVPDRFTGSGSGTDFTLKISRVEAEDVGVYYCMQGLHTPWTFGQGTKVDIKRTVAAPSVFIFPPSDEQLKSGTASVVCLLNNFYPREAKVQWKVDNALQSGNSQESVTEQDSKDSTYSLSSTLTLSKADYEKHKVYACEVTHQGLSSPVTKSFNRGEC
B12: Fab fragment of antibody 838 (Fab)
VH: QVQLVESGGGVVQPGTSLRLSCAASGFTFSTFGMHWVRQAPGKGLEWVAVISYDGNKKYYADSVKGRFTISRDNSKNTLYLQVNSLRVEDTAVYYCAAQTPYFNESSGLVPDWGQGTLVTVSS
light: DIQMTQSPSSLSASVGDRVSITCRASQGISNYLAWYQQKPGKVPKLLIYAASTLQSGVPSRFSGSGSGTDFTLTISSLQPEDVATYYCQKYNSAPQTFGQGTKVEIKRTVAAPSVFIFPPSDEQLKSGTASVVCLLNNFYPREAKVQWKVDNALQSGNSQESVTEQDSKDSTYSLSSTLTLSKADYEKHKVYACEVTHQGLSSPVTKSFNRGEC
notes: also called Fab clone 838
B13: Fab fragment of antibody 853 (Fab)
VH: EVQLVQSGAEVKKPGQSLKISCKTSGYIFTNYWIGWVRQRPGKGLEWMGVIFPADSDARYSPSFQGQVTISADKSIGTAYLQWSSLKASDTAIYYCARPKYYFDSSGQFSEMYYFDFWGQGTLVTVSS
light: EIVLTQSPGTLSLSPGERATLSCRASQSVSSNYLAWYQQKPGQAPRLLIYGASSRAAGMPDRFSGSGSGTDFTLTISRLEPEDFAVYYCQQYGNSPLTFGGGTEVEIKRTVAAPSVFIFPPSDEQLKSGTASVVCLLNNFYPREAKVQWKVDNALQSGNSQESVTEQDSKDSTYSLSSTLTLSKADYEKHKVYACEVTHQGLSSPVTKSFNRGEC
notes: also called Fab clone 853

Biological target: RSV protein F (recombinant or purified F protein) (human respiratory syncytial virus, …)
Test: SPR Biacore 3000, Fab over amine-coupled recombinant protein F

| Binder | Kd | koff | kon | t1/2 |
| --- | --- | --- | --- | --- |
| B1 | 0.226 nM | 9.18e-05 s⁻¹ | 407000 M⁻¹ s⁻¹ | 2.17 h |
| B2 | 0.115 nM | 2.2e-05 s⁻¹ | 192000 M⁻¹ s⁻¹ | 8.83 h |
| B3 | 0.82 nM | 7.54e-05 s⁻¹ | 92000 M⁻¹ s⁻¹ | 2.5 h |
| B4 | 0.14 nM | 4.99e-05 s⁻¹ | 356000 M⁻¹ s⁻¹ | 3.83 h |
| B5 | 0.195 nM | 0.00015 s⁻¹ | 772000 M⁻¹ s⁻¹ | 1.28 h |
| B6 | 0.007 nM | 3.4e-06 s⁻¹ | 497000 M⁻¹ s⁻¹ | 56.7 h |
| B7 | 1.13 nM | 0.00042 s⁻¹ | 372000 M⁻¹ s⁻¹ | 0.467 h |
| B8 | 0.2 nM | 0.000348 s⁻¹ | 1.74e+06 M⁻¹ s⁻¹ | 0.55 h |

Biological target: T1, recombinant RSV protein G, G(B): residues 66-292 of strain 18537 (human respiratory syncytial virus …, UniProt P20896 66-292)
T1 construct: also called soluble recombinant G protein; recombinant protein G
T1 sequence: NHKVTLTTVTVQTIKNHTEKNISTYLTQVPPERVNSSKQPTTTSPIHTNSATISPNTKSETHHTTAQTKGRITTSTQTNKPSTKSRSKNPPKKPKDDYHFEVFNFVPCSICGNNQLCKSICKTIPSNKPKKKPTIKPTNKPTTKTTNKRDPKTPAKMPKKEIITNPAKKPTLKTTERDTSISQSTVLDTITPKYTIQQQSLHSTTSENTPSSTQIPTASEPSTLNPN
Test: SPR Biacore 3000, Fab over amine-coupled recombinant protein G

| Binder | Kd | koff | kon | t1/2 |
| --- | --- | --- | --- | --- |
| B9 | 0.48 nM | 0.000403 s⁻¹ | 833000 M⁻¹ s⁻¹ | 0.478 h |
| B10 | 0.34 nM | 0.000171 s⁻¹ | 498000 M⁻¹ s⁻¹ | 1.13 h |
| B11 | 0.09 nM | 0.000178 s⁻¹ | 2.02e+06 M⁻¹ s⁻¹ | 1.08 h |
| B12 | 0.19 nM | 5.06e-05 s⁻¹ | 264000 M⁻¹ s⁻¹ | 3.83 h |
| B13 | 0.79 nM | 0.0014 s⁻¹ | 1.77e+06 M⁻¹ s⁻¹ | 0.138 h |
